Test results from patent US20260125451A1 (JIANGSU HENGRUI PHARMACEUTICALS, published 2026).
Like-named read-outs stand apart in the source and are kept apart here.

B1: B746201 (other)
heavy: EVQLVQSGAEVKKPGESLKISCKGSGYIFTNYWIAWVRQMPGKGLESMGIIYPGDSDIRYSPSFQGQVTISADKSITTAYLQWSSLKASDTAMYYCARHDIEGFDYWGRGTLVTVSSASTKGPSVFPLAPSSKSTSGGTAALGCLVKDYFPEPVTVSWNSGALTSGVHTFPAVLQSSGLYSLSSVVTVPSSSLGTQTYICNVNHKPSNTKVDKRVEPKSCDKTHTCPPCPAPEFEGGPSVFLFPPKPKDTLMISRTPEVTCVVVDVSHEDPEVKFNWYVDGVEVHNAKTKPREEQYNSTYRVVSVLTVLHQDWLNGKEYKCKVSNKALPASIEKTISKAKGQPREPQVYTLPPSRDELTKNQVSLTCLVKGFYPSDIAVEWESNGQPENNYKTTPPVLDSDGSFFLYSKLTVDKSRWQQGNVFSCSVMHEALHNHYTQKSLSLSPGKGGGGSGGGGSGGGGSMLQMAGQCSQNEYFDSLLHACIPCQLRCSSNTPPLTCQRYCSTSCREEQGEFYDHLLRDCISCASICGQHPKQCAAFCE
light: EIVLTQSPGTLSLSPGERATLSCRASQSVSSSFFAWYQQKPGQAPRLLIYGASSRATGIPDRLSGSGSGTDFTLTITRLEPEDFAVYYCQQYDSSAITFGQGTRLEIKRTVAAPSVFIFPPSDEQLKSGTASVVCLLNNFYPREAKVQWKVDNALQSGNSQESVTEQDSKDSTYSLSSTLTLSKADYEKHKVYACEVTHQGLSSPVTKSFNRGEC
notes: Fusion protein of anifrolumab, TACI-19-16 and BCMA-ECD-2
B2: Telitacicept (RCT-18) (Fc fusion)
chain: SRVDQEERFPQGLWTGVAMRSCPEEQYWDPLLGTCMSCKTICNHQSQRTCAAFCRSLSCRKEQGKFYDHLLRDCISCASICGQHPKQCAYFCENKLRSPVNLPPELDKTHTCPPCPAPEAEGAPSVFLFPPKPKDTLMISRTPEVTCVVVDVSHEDPEVKFNWYVDGVEVHNAKTKPREEQYNSTYRVVSVLTVLHQDWLNGKEYKCKVSNKALPSSIEKTISKAKGQPREPQVYTLPPSRDELTKNQVSLTCLVKGFYPSDIAVEWESNGQPENNYKTTPPVLDSDGSFFLYSKLTVDKSRWQQGNVFSCSVMHEALHNHYTQKSLSLSPGK
notes: Positive control, TACI-Fc
B3: B575702 (Fc fusion)
chain: MLQMAGQCSQNEYFDSLLHACIPCQLRCSSNTPPLTCQRYCNASVTNSVKGTNALSCRKEQGKFYDHLLRDCISCASICGQHPKQCAYFCENKLRSPGDKTHTCPPCPAPEAEGAPSVFLFPPKPKDTLMISRTPEVTCVVVDVSHEDPEVKFNWYVDGVEVHNAKTKPREEQYNSTYRVVSVLTVLHQDWLNGKEYKCKVSNKALPSSIEKTISKAKGQPREPQVYTLPPSRDELTKNQVSLTCLVKGFYPSDIAVEWESNGQPENNYKTTPPVLDSDGSFFLYSKLTVDKSRWQQGNVFSCSVMHEALHNHYTQKSLSLSPGK
notes: TACI-BCMA fusion protein; also called BCMA-ECD-TACI-d2-Fc
B4: B575704 (Fc fusion)
chain: MLQMAGQCSQNEYFDSLLHACIPCQLRCSSNTPPLTCQRYCNASVTNSVKGTNASRVDQEERFPQGLWTGVAMRSCPEEQYWDPLLGTCMSCKTICNHQSQRTCAAFCRSLSCRKEQGKFYDHLLRDCISCASICGQHPKQCAYFCENKLRSPVNLPPELDKTHTCPPCPAPEAEGAPSVFLFPPKPKDTLMISRTPEVTCVVVDVSHEDPEVKFNWYVDGVEVHNAKTKPREEQYNSTYRVVSVLTVLHQDWLNGKEYKCKVSNKALPSSIEKTISKAKGQPREPQVYTLPPSRDELTKNQVSLTCLVKGFYPSDIAVEWESNGQPENNYKTTPPVLDSDGSFFLYSKLTVDKSRWQQGNVFSCSVMHEALHNHYTQKSLSLSPGK
notes: TACI-BCMA fusion protein; also called BCMA-ECD-TACI-T2-Fc
B5: B575701 (Fc fusion)
chain: LSCRKEQGKFYDHLLRDCISCASICGQHPKQCAYFCENKLRSPGMLQMAGQCSQNEYFDSLLHACIPCQLRCSSNTPPLTCQRYCNASVTNSVKGTNADKTHTCPPCPAPEAEGAPSVFLFPPKPKDTLMISRTPEVTCVVVDVSHEDPEVKFNWYVDGVEVHNAKTKPREEQYNSTYRVVSVLTVLHQDWLNGKEYKCKVSNKALPSSIEKTISKAKGQPREPQVYTLPPSRDELTKNQVSLTCLVKGFYPSDIAVEWESNGQPENNYKTTPPVLDSDGSFFLYSKLTVDKSRWQQGNVFSCSVMHEALHNHYTQKSLSLSPGK
notes: TACI-BCMA fusion protein; also called TACI-d2-BCMA-ECD-Fc
B6: B575703 (Fc fusion)
chain: SRVDQEERFPQGLWTGVAMRSCPEEQYWDPLLGTCMSCKTICNHQSQRTCAAFCRSLSCRKEQGKFYDHLLRDCISCASICGQHPKQCAYFCENKLRSPVNLPPELMLQMAGQCSQNEYFDSLLHACIPCQLRCSSNTPPLTCQRYCNASVTNSVKGTNADKTHTCPPCPAPEAEGAPSVFLFPPKPKDTLMISRTPEVTCVVVDVSHEDPEVKFNWYVDGVEVHNAKTKPREEQYNSTYRVVSVLTVLHQDWLNGKEYKCKVSNKALPSSIEKTISKAKGQPREPQVYTLPPSRDELTKNQVSLTCLVKGFYPSDIAVEWESNGQPENNYKTTPPVLDSDGSFFLYSKLTVDKSRWQQGNVFSCSVMHEALHNHYTQKSLSLSPGK
notes: TACI-BCMA fusion protein; also called TACI-T2-BCMA-ECD-Fc

Experiments:
[1] = molecular target: T1, type I interferon (IFN) receptor subunit 1 (IFNAR1) (human, UniProt P17181 28-557); assay: cell-based or functional assay
T1 sequence (looked up): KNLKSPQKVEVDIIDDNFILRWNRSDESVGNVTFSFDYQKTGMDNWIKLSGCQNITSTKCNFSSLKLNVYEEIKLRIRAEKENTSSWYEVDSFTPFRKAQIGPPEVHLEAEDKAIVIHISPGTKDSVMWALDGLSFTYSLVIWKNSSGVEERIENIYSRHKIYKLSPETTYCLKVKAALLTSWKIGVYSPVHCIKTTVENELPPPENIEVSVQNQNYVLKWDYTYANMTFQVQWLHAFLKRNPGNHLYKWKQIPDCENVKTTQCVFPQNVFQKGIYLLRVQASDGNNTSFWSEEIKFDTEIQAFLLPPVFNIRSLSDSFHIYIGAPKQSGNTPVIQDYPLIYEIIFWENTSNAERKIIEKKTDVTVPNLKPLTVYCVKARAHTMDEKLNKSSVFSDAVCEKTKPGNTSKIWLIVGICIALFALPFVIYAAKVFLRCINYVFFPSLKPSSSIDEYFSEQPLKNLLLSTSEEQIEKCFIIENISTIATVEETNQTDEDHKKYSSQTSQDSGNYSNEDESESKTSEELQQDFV

[2] = molecular target: T1, type I interferon (IFN) receptor …; assay: cell-based or functional assay; remark: listed apart in the source
[3] = molecular target: T2, APRIL (Acro Biosystems, Cat: APL-H52D1) (UniProt O75888 115-250, limits assumed); assay: ELISA, APRIL coated, anti-human Fc-HRP
T2 construct: also called ARPIL; A proliferation-inducing ligand
T2 sequence (looked up): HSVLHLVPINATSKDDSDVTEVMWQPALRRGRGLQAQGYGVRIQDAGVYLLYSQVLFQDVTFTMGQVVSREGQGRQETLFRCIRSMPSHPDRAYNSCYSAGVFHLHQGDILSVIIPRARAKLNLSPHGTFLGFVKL

[4] = molecular target: T2, APRIL (Acro Biosystems, Cat: APL-H52D1); assay: ELISA, APRIL coated, anti-human Fc-HRP, OD450
Procedure: The capabilities of fusion proteins B606401, B637302, B746201, and B805201 to bind to BAFF and APRIL were assessed by ELISA as follows:
(§1) BAFF (PeproTech, Cat: 310-13) or ARPIL (Acro Biosystems, Cat: APL-H52D1) was diluted to 1 μg/mL with PBS, and a 96-well plate was coated with the dilution overnight at 4° C. The plate was washed with PBST and blocked with Blocking Buffer (PBST containing 1% BSA) at 37° C. for 1 h. The plate was tapped. The test antibodies were diluted with Blocking Buffer. Incubation was performed at 37° C. for 1.5 h. The plate was washed with PBST. An HRP-mouse anti-human Fc antibody (GenScript, Cat: A01854-200) was diluted with Blocking Buffer. Incubation was performed at 37° C. for 40 min. The plate was washed with PBST. 100 μL of TMB substrate solution (Biopanda, Cat: TMB-S-003) was added, and color development was performed at 37° C. for 3 min. 100 μL of ELISA stop solution (Solarbio, Cat: C1058) was added. OD450 was measured.
The EC₅₀ value for the capability of B637302 to bind to APRIL decreased to 1/7 to ⅙ of that of telitacicept.

[5] = molecular target: recombinant human BAFF (R&D cat: 7537-BF-025/CF) (human, UniProt Q9Y275 134-285, limits assumed); assay: cell-based or functional assay
Chain of recombinant human BAFF (R&D cat: 7537-BF-025/CF) (Q9Y275 134-285 limits assumed): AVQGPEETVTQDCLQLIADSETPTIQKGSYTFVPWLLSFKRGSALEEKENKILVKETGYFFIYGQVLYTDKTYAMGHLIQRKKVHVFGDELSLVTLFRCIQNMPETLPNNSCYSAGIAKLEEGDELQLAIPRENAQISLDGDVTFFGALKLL

[6] = molecular target: T3, recombinant human ARPIL (R&D cat: 5860-AP-010/CF) (human, UniProt O75888 105-250, limits assumed); assay: cell-based or functional assay
T3 sequence (looked up): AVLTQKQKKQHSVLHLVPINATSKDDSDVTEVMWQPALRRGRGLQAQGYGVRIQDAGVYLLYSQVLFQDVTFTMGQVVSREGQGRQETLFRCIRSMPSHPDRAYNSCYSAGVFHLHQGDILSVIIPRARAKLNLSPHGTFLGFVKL

[7] = molecular target: T4, BAFF (PeproTech, Cat: 310-13) (UniProt Q9Y275 134-285); assay: ELISA, BAFF coated, anti-human Fc-HRP, OD450
T4 sequence (Q9Y275 134-285 limits assumed): as the sequence (Q9Y275 134-285 limits assumed) above
Procedure: (§2) The capabilities of TACI-BCMA fusion proteins (B575701, B575702, B575703, and B575704) to bind to BAFF and APRIL were assessed by ELISA as follows:
as §1, with “96-well plate (Costar, Cat: 3590) was coated” for “96-well plate was coated”

[8] = molecular target: T2, APRIL (Acro Biosystems, Cat: APL-H52D1); assay: ELISA, APRIL coated, anti-human Fc-HRP, OD450; remark: listed apart in the source
Procedure: as §2
as §1, with “96-well plate (Costar, Cat: 3590) was coated” for “96-well plate was coated”

[9] = molecular target: T2, APRIL (Acro Biosystems, Cat: APL-H52D1); assay: ELISA, APRIL coated, anti-human Fc-HRP, OD450; remark: listed apart in the source
Procedure: The capabilities of B613301, B613302, and B613303, which are fusion proteins of anifrolumab and TACI-BCMA, to bind to BAFF and APRIL were assessed by ELISA as follows:
as §1, with “96-well plate (Costar, Cat: 3590) was coated” for “96-well plate was coated”

[10] = molecular target: T4, BAFF (PeproTech, Cat: 310-13); assay: ELISA, BAFF coated, anti-human Fc-HRP

| Binder | Emax [4] [nM] | Emax [7] [nM] | Emax [8] [nM] | EC50 relative to that of telitacicept [10] [ratio] | further results |
| --- | --- | --- | --- | --- | --- |
| B1 | 2.8 |  |  |  | IC50, inhibition of IFN-α-induced in vitro differentiation of B cells into plasma cells [1]: 1.9 nM; IC50 (nM), inhibition of the activity of type I interferons (IFN-β, HEK-Blue IFN-α/β cells) [2]: 1.64 nM; EC50 relative to that of telitacicept [3]: 0.333 ratio |
| B2 | 2.98 | 2.28 | 2.62 |  | Flow cytometry proliferating B cell proportion (%), mean, BAFF-induced, drug at 10 nM [5]: 36%; Flow cytometry proliferating B cell proportion (%), mean, BAFF-induced, drug at 100 nM [5]: 30.7%; Flow cytometry proliferating B cell proportion (%), mean, BAFF-induced, drug at 1000 nM [5]: 24.3%; Flow cytometry proliferating B cell proportion (%), mean, APRIL-induced, drug at 4.12 nM [6]: 48.1%; Flow cytometry proliferating B cell proportion (%), mean, APRIL-induced, drug at 12.35 nM [6]: 49.2%; Flow cytometry proliferating B cell proportion (%), mean, APRIL-induced, drug at 37.04 nM [6]: 50.1%; Flow cytometry proliferating B cell proportion (%), mean, APRIL-induced, drug at 111.11 nM [6]: 50.3%; Flow cytometry proliferating B cell proportion (%), mean, APRIL-induced, drug at 333.33 nM [6]: 49.1%; Flow cytometry proliferating B cell proportion (%), mean, APRIL-induced, drug at 1000.00 nM [6]: 46.3%; Emax [9]: 2.5 nM |
| B3 |  | 2.24 | 2.64 | 0.25 |  |
| B4 |  | 2.29 | 2.68 | 0.25 |  |
| B5 |  | 2.31 | 2.69 | 0.5 |  |
| B6 |  | 2.43 | 2.78 | 0.5 |  |
